Article PMC8780415

Assays:
Experiment in all cases: flow cytometry on cells
[1] = molecular target: Biotinylated Myr47 (myristoylated pre-S1 peptide); details: HEK293T cells transiently transfected; GFP+ gate; 10,000 cells; triplicate assays; mean and standard error; Myr47 binding examined at 4 °C; parent: est. 13; read off a plot
[2] = molecular target: SR-B1-GFP fusion protein (scavenger receptor class B type 1) (UniProt Q8WTV0)
[3] = molecular target: NTCP-GFP fusion protein (sodium taurocholate cotransporting polypeptide) (UniProt Q14973)
UniProt Q14973, sequence (Q14973 whole entry, the tested form may be a part): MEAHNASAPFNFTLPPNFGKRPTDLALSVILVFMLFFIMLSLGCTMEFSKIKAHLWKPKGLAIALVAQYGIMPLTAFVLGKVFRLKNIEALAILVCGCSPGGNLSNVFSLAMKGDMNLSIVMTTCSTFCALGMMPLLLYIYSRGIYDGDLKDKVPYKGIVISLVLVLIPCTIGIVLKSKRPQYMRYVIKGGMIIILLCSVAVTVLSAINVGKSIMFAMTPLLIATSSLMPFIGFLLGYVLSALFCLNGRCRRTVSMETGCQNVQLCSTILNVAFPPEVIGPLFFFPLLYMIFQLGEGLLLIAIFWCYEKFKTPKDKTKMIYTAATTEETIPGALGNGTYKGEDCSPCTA

UniProt Q8WTV0, sequence (Q8WTV0 whole entry, the tested form may be a part): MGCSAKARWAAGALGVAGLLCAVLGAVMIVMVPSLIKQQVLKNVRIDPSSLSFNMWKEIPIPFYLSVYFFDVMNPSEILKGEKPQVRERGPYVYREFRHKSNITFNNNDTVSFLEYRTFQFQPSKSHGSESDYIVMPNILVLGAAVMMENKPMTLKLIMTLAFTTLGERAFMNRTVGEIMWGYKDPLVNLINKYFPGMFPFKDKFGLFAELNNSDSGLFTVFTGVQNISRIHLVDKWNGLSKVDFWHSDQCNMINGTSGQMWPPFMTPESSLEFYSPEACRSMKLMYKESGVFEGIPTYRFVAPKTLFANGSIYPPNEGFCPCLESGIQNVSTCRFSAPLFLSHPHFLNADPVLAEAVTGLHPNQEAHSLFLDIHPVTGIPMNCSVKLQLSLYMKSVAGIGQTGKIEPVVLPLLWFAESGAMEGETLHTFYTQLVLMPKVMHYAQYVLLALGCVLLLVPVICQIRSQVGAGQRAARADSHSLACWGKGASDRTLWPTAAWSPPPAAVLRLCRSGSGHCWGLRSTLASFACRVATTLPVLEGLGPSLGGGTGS

Substance: SR-B1-GFP fusion protein (scavenger receptor class B type 1) (from UniProt Q8WTV0) M441A; L448A; L455A
- response [1]: 10 FI × 10^3

Substance: SR-B1-GFP fusion protein (scavenger receptor class B type 1) (from UniProt Q8WTV0) S112F
- response [1]: 5.3 FI × 10^3

Substance: SR-B1-GFP fusion protein (scavenger receptor class B type 1) (from UniProt Q8WTV0) K156A
- response [1]: 5.8 FI × 10^3

Substance: SR-B1-GFP fusion protein (scavenger receptor class B type 1) (from UniProt Q8WTV0) K151A
- response [1]: 10 FI × 10^3

Substance: Yeast-derived nanoparticles containing L protein (bio-nanocapsules, BNCs)
- fold binding over GFP control cells [2]: 9.2 fold

Substance: Biotinylated Myr47 (myristoylated pre-S1 peptide)
- fold binding over GFP control cells [3]: 3.4 fold
- fold binding over GFP control cells [2]: 2.8 fold

Substance: SR-B1-GFP fusion protein (scavenger receptor class B type 1) (from UniProt Q8WTV0) T175A
- response [1]: 5.7 FI × 10^3
